Results reported in patent publication US20220306765A1 (SUZHOU TRANSCENTA THERAPEUTICS, published 2022).
Residue numbers refer to the chain shown, from its start.

B1: 7C12-C (antibody, human IgG1, V domains shown)
VH: EFQLQQSGPELEKPGASVRISCKTSGYSFTGYNMNWVKQSNGESLEWIGNIDPYYGATRYNQKFKGKATLTVDKSSSTAYMQLKSLTSEDSAVYYCARSYYGNAFDYWGQGTTLTVSS
VL: DIVMTQSPSSLTVTAGEKVTMSCKSSQSLLNSGNQKNYLTWYQQKPGQPPKLLIYWASTRESGVPDRFTGSGSGTDFTLTISSVQAEDLAVYYCQNDYSFPFTFGSGTKLEIK
notes: also called chimeric 7C12
B2: 12E9-C (antibody, human IgG1, V domains shown)
VH: B1 VH with A57G
VL: B1 VL with S28N, S32N, T78I, S106A, I112L
notes: also called chimeric 12E9
B3: 26G6-C (antibody, human IgG1, V domains shown)
VH: B1 VH with R19K, E43Q, N50H, G56V, A57T, R59T, K65R, Y100F
VL: B1 VL with L30F
notes: also called chimeric 26G6
B4: 11F12-C (antibody, human IgG1, V domains shown)
VH: B1 VH with N50Y, A57G
VL: B1 VL with F100Y
notes: also called chimeric 11F12
B5: 59A9 (antibody, V domains shown)
VH: QITQKESGPGILQPSQTLSLTCSLSGFSLSTYFIGVGWIRQPSGKGLEWLAHIWWNDNKYYNTALKSRLTISKDTSNNQVFLKIASVDTADTATYYCARMGSGAWFTYWGQGTLVTVSA
VL: B1 VL with S99Y, F100Y, F102L
notes: mouse hybridoma antibody; also called hybridoma antibody 59A9
B6: 7C12 (antibody, V domains shown)
VH: B1 VH
VL: B1 VL
notes: mouse hybridoma antibody; also called hybridoma antibody 7C12
B7: 11F12 (antibody, V domains shown)
VH: B1 VH with N50Y, A57G
VL: B1 VL with F100Y
notes: mouse hybridoma antibody; also called hybridoma antibody 11F12
B8: 26G6 (antibody, V domains shown)
VH: B1 VH with R19K, E43Q, N50H, G56V, A57T, R59T, K65R, Y100F
VL: B1 VL with L30F
notes: mouse hybridoma antibody; also called hybridoma antibody 26G6
B9: 18B10 (antibody, V domains shown)
VH: B1 VH with A57G, R59S, S99M, Y101H
VL: B1 VL with Q35L, E61K, I81L, F100Y, F102L, S106A, I112L
notes: mouse hybridoma antibody; also called hybridoma antibody 18B10
B10: 12E9 (antibody, V domains shown)
VH: B1 VH with A57G
VL: B1 VL with S28N, S32N, T78I, S106A, I112L
notes: mouse hybridoma antibody; also called hybridoma antibody 12E9
B11: 18B10-HbLa (antibody, human IgG1, kappa, V domains shown)
VH: QVQLVQSGAEVKKPGASVKVSCKASGYSFTGYNMNWVRQAPGQGLEWMGNIDPYYGGTSYNQKFKGRVTLTIDKSTSTVYMELSSLRSEDTAVYYCARMYHGNAFDYWGQGTTVTVSS
VL: DIVMTQSPDSLAVSLGERATINCKSSQSLLNSGNLKNYLTWYQQKPGQPPKLLIYWASTRKSGVPDRFSGSGSGTDFTLTISSLQAEDVAVYYCQNDYSYPLTFGGGTKVEIKR
notes: humanized 18B10, human IgG1 / kappa
B12: 18B10-HaLb (antibody, human IgG1, kappa, V domains shown)
VH: B11 VH with S28T, L70M
VL: B11 VL with I21M, S69T
notes: as for B11
B13: 18B10-HcLa (antibody, human IgG1, kappa, V domains shown)
VH: B11 VH with R38K, M48I
VL: B11 VL
notes: as for B11
B14: 18B10-HcLb (antibody, human IgG1, kappa, V domains shown)
VH: B11 VH with R38K, M48I
VL: B11 VL with I21M, S69T
notes: as for B11
B15: 18B10-HbLb (antibody, human IgG1, kappa, V domains shown)
VH: B11 VH
VL: B11 VL with I21M, S69T
notes: as for B11

These binders were tested against T1, human CLDN18.2 (human) (assay: FACS, NUGC4 cells).
T1 construct: also called hCLDN18.2; Claudin-18 splice variant 2

EC50 [µg/mL] | Binder
13 | B1
9.37 | B2
67.1 | B3
10 | B4

Each binder was assayed against T2, human CLDN18.1 (human, UniProt P56856 1-261) (assay: FACS, HEK293-CLDN18.1 cells).
T2 construct: on HEK293-CLDN18.1 cells; also called Claudin-18 splice variant 1; NP_057453.1
T2 sequence (P56856 whole entry, canonical isoform): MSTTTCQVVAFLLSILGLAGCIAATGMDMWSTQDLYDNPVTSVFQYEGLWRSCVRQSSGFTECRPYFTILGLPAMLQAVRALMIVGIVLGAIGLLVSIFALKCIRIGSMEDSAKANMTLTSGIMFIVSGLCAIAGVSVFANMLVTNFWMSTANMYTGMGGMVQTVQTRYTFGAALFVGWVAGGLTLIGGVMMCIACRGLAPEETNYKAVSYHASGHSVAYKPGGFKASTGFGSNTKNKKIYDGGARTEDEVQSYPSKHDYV

binding result | Binder
no binding | B1
no binding | B2
no binding | B3
no binding | B4

What follows are binders tested against T1, human CLDN18.2 (assay: FACS, HEK293-CLDN18.2 cells).
Method: (§1) Log-phase HEK293-CLDN18.2 and NUGC4 cells were re-suspended in PBS. After 3× cell wash by using FACS washing buffer (PBS+2% FBS), 100 μl/well diluted hybridoma Abs with a range from 400 nM to 0.002 nM were added into each well for incubation at 4° C. for 30 min. Again, cells were washed 3 times by using FACS washing buffer and then incubated with 100 μl/well goat anti-mIgG-FITC (1:400 dilution) at 4° C. for another 30 min. After a final 3× wash using FACS washing buffer, cells were analyzed by flow Cytometry.

EC50 [µg/mL] | Binder
0.51 | B5
1.08 | B6
0.82 | B7
0.76 | B8
0.81 | B9
0.52 | B10

Target: T1, human CLDN18.2
Experiment: FACS, HEK293-CLDN18.2 cells
Remark: another data set of the same source

EC50 [µg/mL] | Binder
0.63 | B1
0.65 | B2
1.1 | B3
0.61 | B4

These binders were tested against T3, human CLDN18.2-mRFP1, wild-type (human) (assay: FACS, transfected HEK293, 10 µg/ml antibody;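 also: antibody binding read by flow cytometry with a FITC-labelled anti-human IgG secondary, gated on RFP-positive cells, each mutant signal expressed against wild-type CLDN18.2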).
T3 construct: human CLDN18.2 (amino acid 1-261) fused to mRFP1 (amino acid 1-225), transiently expressed in HEK293 cells; also called wild-type human CLDN18.2-mRFP
Method: (§2) The transfected HEK293-CLDN18.2 or HEK293-CLDN18.1 cell were resuspended in PBS with 2% BSA at density of 10\hat{ }5/well, 100 μl/well. […] Next, cells were washed 3 times by FACS washing buffer and incubated with 100 μl/well goat anti-hIgG (H+L)-FITC (1:200 dilution) at 4° C. for another 30 min. Finally, cells were washed 3 times by FACS washing buffer and analyzed by Flow Cytometry. To analyze binding to CLDN18.2 transfected cells, the RFP positive cells were used for control gating.

binding percentage vs wild-type CLDN18.2 [%] | Binder
100 | B1
100 | B2
100 | B3
100 | B4

The binders below were run against human CLDN18.2-mRFP Q29M (human) (assay: FACS, transfected HEK293, 10 µg/ml antibody;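 also: antibody binding read by flow cytometry with a FITC-labelled anti-human IgG secondary, gated on RFP-positive cells, each mutant signal expressed against wild-type CLDN18.2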).
human CLDN18.2-mRFP Q29M (human), sequence (chain, as listed by the source Q29M Q29M limits assumed): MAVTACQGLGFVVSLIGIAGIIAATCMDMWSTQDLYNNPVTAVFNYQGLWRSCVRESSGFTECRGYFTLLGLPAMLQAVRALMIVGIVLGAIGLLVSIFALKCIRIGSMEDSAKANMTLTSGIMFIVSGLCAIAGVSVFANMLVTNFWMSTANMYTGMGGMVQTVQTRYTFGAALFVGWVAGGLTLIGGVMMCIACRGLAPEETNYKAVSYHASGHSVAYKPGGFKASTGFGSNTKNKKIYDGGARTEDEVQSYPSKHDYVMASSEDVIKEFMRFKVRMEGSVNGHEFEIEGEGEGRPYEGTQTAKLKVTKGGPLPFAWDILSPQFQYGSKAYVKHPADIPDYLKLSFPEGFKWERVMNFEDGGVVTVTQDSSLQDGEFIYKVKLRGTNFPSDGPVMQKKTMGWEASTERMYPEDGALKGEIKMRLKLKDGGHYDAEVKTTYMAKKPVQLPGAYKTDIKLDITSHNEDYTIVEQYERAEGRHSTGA
Method: as §2

binding percentage vs wild-type CLDN18.2 [%] | Binder
83.5 | B1
106 | B2
107 | B3
108 | B4

What follows are binders tested against human CLDN18.2-mRFP N37D (human) (assay: FACS, transfected HEK293, 10 µg/ml antibody;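 also: antibody binding read by flow cytometry with a FITC-labelled anti-human IgG secondary, gated on RFP-positive cells, each mutant signal expressed against wild-type CLDN18.2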).
human CLDN18.2-mRFP N37D (human), sequence (chain, as listed by the source N37D N37D limits assumed): as the sequence (chain, as listed by the source Q29M Q29M limits assumed) above, with M29Q, N37D counted along it
Method: as §2

binding percentage vs wild-type CLDN18.2 [%] | Binder
80.2 | B1
103 | B2
118 | B3
102 | B4

What follows are binders tested against human CLDN18.2-mRFP A42S (human) (assay: FACS, transfected HEK293, 10 µg/ml antibody;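 also: antibody binding read by flow cytometry with a FITC-labelled anti-human IgG secondary, gated on RFP-positive cells, each mutant signal expressed against wild-type CLDN18.2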).
human CLDN18.2-mRFP A42S (human), sequence (chain, as listed by the source A42S A42S limits assumed): as the sequence (chain, as listed by the source Q29M Q29M limits assumed) above, with M29Q, A42S counted along it
Method: as §2

binding percentage vs wild-type CLDN18.2 [%] | Binder
38.7 | B1
55.1 | B2
82.2 | B3
56.9 | B4

What follows are binders tested against human CLDN18.2-mRFP N45Q (human) (assay: FACS, transfected HEK293, 10 µg/ml antibody).
human CLDN18.2-mRFP N45Q (human), sequence (chain, as listed by the source N45Q N45Q limits assumed): as the sequence (chain, as listed by the source Q29M Q29M limits assumed) above, with M29Q, N45Q counted along it
Method: as §2

binding percentage vs wild-type CLDN18.2 [%] | Binder
52.1 | B1
50.8 | B2
88.7 | B3
57.4 | B4

What follows are binders tested against human CLDN18.2-mRFP Q47E (human) (assay: FACS, transfected HEK293, 10 µg/ml antibody).
human CLDN18.2-mRFP Q47E (human), sequence (chain, as listed by the source Q47E Q47E limits assumed): as the sequence (chain, as listed by the source Q29M Q29M limits assumed) above, with M29Q, Q47E counted along it
Method: as §2

binding percentage vs wild-type CLDN18.2 [%] | Binder
74.7 | B1
89.1 | B2
116 | B3
86.1 | B4

These binders were tested against human CLDN18.2-mRFP E56Q (human) (assay: FACS, transfected HEK293, 10 µg/ml antibody).
human CLDN18.2-mRFP E56Q (human), sequence (chain, as listed by the source E56Q E56Q limits assumed): as the sequence (chain, as listed by the source Q29M Q29M limits assumed) above, with M29Q, E56Q counted along it
Method: as §2

binding percentage vs wild-type CLDN18.2 [%] | Binder
0.48 | B1
0.35 | B2
0.34 | B3
0.27 | B4

What follows are binders tested against human CLDN18.2-mRFP G65P (human) (assay: FACS, transfected HEK293, 10 µg/ml antibody).
human CLDN18.2-mRFP G65P (human), sequence (chain, as listed by the source G65P G65P limits assumed): as the sequence (chain, as listed by the source Q29M Q29M limits assumed) above, with M29Q, G65P counted along it
Method: as §2

binding percentage vs wild-type CLDN18.2 [%] | Binder
79.4 | B1
96.7 | B2
119 | B3
92.7 | B4

These binders were tested against human CLDN18.2-mRFP L69I (human) (assay: FACS, transfected HEK293, 10 µg/ml antibody).
human CLDN18.2-mRFP L69I (human), sequence (chain, as listed by the source L69I L69I limits assumed): as the sequence (chain, as listed by the source Q29M Q29M limits assumed) above, with M29Q, L69I counted along it
Method: as §2

binding percentage vs wild-type CLDN18.2 [%] | Binder
90.4 | B1
58.1 | B2
79.7 | B3
74.3 | B4

The binders below were run against T2, human CLDN18.1 (assay: FACS, hybridoma supernatant, HEK293-CLDN18.1 cells).
Method: Log-phase CLDN18.1 expressing HEK293-CLDN18.1 cells were resuspended in PBS at a density of 10\hat{ }5/100 μl per well. After 3× cell wash by using FACS washing buffer (PBS+2% FBS), 100 μl/well hybridoma supernatant was added into each well for incubation at 4° C. for 30 min. Again, cells were washed 3 times by using FACS washing buffer and then incubated with 100 μl/well goat anti-mIgG-FITC (1:400 dilution) at 4° C. for another 30 min. After a final 3× wash using FACS washing buffer, cells were analyzed by flow Cytometry.

binding result | Binder
no binding | B5
no binding | B6
no binding | B7
no binding | B8
no binding | B9
no binding | B10

These binders were tested against T1, human CLDN18.2 (assay: flow cytometry on NUGC4 cells, goat anti-mIgG-FITC).
Method: as §1

EC50 (read off the curve) [µg/mL] | Binder
~2 | B8
~2 | B10

Target: T1, human CLDN18.2
Experiment: flow cytometry on NUGC4 cells, goat anti-mIgG-FITC
Remark: another data set of the same source
Method: as §1

EC50 (read off the curve) [µg/mL] | Binder
~0.5 | B6
~1 | B7

The binders below were run against T1, human CLDN18.2 (assay: flow cytometry on HEK293-CLDN18.2 cells; unit taken from the concentration axis).
Method: as §1

EC50 [µg/mL] | Binder
1.31 | B11
1.27 | B12
1.39 | B13
1.22 | B14
1.2 | B15

What follows are binders tested against T1, human CLDN18.2 (assay: flow cytometry on HEK293-CLDN18.2 cells, goat anti-mIgG-FITC; unit taken from the concentration axis).
Method: as §1

EC50 [µg/mL] | Binder
0.417 | B6
0.605 | B7
